Results: patent publication US20190256864A1 (INDIANA UNIVERSITY RESEARCH AND TECHNOLOGY, published 2019)

How the values were obtained:
[1] = test system: T1, Soybean mosaic virus (SMV) PBS1 decoy protein
T1 sequence: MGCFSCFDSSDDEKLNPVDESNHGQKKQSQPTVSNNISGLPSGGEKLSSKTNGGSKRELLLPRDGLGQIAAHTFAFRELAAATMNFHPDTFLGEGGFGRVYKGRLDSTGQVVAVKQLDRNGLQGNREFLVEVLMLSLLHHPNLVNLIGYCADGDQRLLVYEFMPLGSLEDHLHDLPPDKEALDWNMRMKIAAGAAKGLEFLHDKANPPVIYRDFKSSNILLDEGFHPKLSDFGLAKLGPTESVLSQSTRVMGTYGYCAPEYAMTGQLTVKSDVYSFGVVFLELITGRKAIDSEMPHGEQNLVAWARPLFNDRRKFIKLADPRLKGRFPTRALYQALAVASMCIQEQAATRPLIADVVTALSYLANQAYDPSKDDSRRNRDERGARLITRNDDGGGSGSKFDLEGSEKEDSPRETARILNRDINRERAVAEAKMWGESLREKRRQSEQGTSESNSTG

[2] = test system: T2, Wheat streak mosaic virus (WSMV) PBS1 decoy protein
T2 sequence: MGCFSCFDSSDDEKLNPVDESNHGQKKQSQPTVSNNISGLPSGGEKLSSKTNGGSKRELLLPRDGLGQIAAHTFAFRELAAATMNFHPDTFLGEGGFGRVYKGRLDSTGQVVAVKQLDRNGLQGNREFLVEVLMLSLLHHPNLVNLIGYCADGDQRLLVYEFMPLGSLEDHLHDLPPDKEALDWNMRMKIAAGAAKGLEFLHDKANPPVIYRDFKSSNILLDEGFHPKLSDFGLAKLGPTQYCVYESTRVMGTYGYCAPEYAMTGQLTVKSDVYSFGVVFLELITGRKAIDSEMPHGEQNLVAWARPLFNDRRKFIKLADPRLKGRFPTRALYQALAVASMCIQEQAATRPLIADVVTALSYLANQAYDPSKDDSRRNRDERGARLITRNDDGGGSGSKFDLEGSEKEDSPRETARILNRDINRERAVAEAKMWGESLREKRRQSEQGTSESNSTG

[3] = test system: T3, GmPBS1SCS derivative of GmPBS1a
T3 sequence: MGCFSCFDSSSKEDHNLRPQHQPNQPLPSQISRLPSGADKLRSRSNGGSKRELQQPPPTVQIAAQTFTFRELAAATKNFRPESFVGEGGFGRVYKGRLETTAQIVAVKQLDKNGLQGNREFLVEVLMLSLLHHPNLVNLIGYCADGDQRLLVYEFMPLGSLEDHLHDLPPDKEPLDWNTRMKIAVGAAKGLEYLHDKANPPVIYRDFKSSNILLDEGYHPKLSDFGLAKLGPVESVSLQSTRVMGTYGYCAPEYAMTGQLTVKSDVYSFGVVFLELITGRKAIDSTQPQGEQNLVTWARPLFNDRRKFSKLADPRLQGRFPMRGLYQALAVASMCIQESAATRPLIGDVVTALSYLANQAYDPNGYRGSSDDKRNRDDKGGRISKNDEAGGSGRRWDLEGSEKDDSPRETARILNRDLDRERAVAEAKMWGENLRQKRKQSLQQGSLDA

[4] = test system: T4, GmPBS1SCS derivative of GmPBS1b
T4 sequence: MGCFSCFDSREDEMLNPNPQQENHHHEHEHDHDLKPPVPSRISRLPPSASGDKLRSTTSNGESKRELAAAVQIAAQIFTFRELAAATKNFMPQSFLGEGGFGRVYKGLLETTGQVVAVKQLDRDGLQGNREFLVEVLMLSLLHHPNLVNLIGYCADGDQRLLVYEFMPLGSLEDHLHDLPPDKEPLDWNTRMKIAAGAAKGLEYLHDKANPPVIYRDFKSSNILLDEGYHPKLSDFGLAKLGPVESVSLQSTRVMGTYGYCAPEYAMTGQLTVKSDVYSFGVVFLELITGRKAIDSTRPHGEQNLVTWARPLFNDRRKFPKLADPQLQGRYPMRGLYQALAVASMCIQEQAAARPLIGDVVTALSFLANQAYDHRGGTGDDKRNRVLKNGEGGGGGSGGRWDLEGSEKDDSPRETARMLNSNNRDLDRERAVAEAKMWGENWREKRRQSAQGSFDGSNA

[5] = test system: T5, GmPBS1SCS derivative of GmPBS1c
T5 sequence: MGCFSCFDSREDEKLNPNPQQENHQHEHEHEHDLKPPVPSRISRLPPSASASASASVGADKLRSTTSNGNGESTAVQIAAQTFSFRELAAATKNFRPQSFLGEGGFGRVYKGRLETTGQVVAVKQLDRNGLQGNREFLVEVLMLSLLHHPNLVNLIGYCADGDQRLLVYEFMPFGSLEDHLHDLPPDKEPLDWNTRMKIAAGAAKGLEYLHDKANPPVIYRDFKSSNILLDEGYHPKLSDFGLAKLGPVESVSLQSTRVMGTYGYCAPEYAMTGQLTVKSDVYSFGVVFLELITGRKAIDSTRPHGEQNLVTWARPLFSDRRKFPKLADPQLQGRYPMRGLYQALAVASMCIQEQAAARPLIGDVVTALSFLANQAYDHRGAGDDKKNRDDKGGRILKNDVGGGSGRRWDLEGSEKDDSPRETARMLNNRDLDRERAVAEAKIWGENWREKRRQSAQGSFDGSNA

[6] = target: T6, sYFP:LTI6b (Arabidopsis thaliana, UniProt Q9ZNS6 1-54); test: co-immunoprecipitation (GFP-Trap beads, anti-HA blot) after transient co-expression in N. benthamiana
T6 construct: Negative control in the co-immunoprecipitation; also called sYFP:LTI6b fusion protein; plasma membrane-localized negative control; not shown: N-terminal super yellow fluorescent protein (sYFP)
T6 sequence (looked up): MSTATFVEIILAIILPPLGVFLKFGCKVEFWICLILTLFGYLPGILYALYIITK
Description: To determine whether PBR1.c is activated by sensing cleavage of PBS1 proteins, co-immunoprecipitation (co-IP) analyses of PBR1.c with HvPBS1-1:HA, HvPBS1-2:HA, AtPBS1:HA, or NbPBS1:HA was performed. As a positive control, AtPBS1:HA was co-expressed with RPS5:sYFP, which forms a pre- activation complex in the absence of AvrPphB. As a negative control, the plasma membrane-localized fusion protein sYFP:LTI6b with each of the PBS1 proteins (Cutler et al., 2000). […] NbPBS1:HA also immunoprecipitated with PBR1.c:sYFP (and not with sYFP:LTI6b) supporting the notion that AvrPphB-mediated cleavage of NbPBS1 activates PBR1.c-dependent HR in N. benthamiana. Though all of the PBS1 proteins immunoprecipitated with PBR1.c:sYFP, PBR1.c:sYFP preferentially interacted with HvPBS1-2:HA and AtPBS1:HA (FIG. 7).
For transient expression assays in N. benthamiana, we followed the protocol described by DeYoung et al. (2012) and Kim et al. (2016). Briefly, the dexamethasone-inducible constructs were transformed into Agrobacterium tumefaciens GV3101 (pMP90) strains and were streaked onto Luria-Bertani (LB) plates containing 30 μg of gentamicin sulfate per milliliter and 50 μg of kanamycin per milliliter. […]

[7] = target: T7, HvPBS1-2:HA
T7 chain: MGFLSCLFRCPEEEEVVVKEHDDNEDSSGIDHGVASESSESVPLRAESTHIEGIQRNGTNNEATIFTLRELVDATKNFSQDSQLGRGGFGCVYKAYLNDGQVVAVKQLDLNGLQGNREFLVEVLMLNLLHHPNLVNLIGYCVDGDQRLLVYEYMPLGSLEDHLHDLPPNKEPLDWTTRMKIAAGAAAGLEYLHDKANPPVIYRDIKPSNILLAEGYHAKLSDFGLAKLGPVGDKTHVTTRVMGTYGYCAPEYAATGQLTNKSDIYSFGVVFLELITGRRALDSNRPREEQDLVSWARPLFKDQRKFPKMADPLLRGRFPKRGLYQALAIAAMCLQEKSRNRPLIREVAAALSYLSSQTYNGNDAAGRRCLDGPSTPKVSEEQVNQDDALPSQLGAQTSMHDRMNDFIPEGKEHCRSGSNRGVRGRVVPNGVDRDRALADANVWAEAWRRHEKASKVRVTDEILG

[8] = target: T8, HvPBS1-1:HA
T8 chain: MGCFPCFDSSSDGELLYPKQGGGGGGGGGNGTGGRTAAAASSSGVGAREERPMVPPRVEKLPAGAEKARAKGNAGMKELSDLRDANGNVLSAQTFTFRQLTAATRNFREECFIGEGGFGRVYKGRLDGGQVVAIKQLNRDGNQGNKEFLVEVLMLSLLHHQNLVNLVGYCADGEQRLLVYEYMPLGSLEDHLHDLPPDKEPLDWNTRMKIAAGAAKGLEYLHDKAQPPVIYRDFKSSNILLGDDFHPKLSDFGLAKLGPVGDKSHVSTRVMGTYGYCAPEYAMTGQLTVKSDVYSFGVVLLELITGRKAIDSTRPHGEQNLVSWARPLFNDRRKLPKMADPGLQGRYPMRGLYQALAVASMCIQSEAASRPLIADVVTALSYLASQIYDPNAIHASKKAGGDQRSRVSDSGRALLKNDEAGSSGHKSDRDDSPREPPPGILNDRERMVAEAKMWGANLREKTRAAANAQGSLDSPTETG

[9] = target: NbPBS1:HA

“Wheat streak mosaic virus (WSMV) NIa protease” was tested, and the “cleavage of the substrate (immunoblot after transient co-expression in N. benthamiana); not cleaved by the non-matching protease” value [1] was “demonstrating cleavage of the decoy PBS1 proteins only by the matching proteases” and the “cleavage of the substrate (immunoblot after transient co-expression in N. benthamiana)” value [2] was “demonstrating cleavage of the decoy PBS1 proteins only by the matching proteases”.

In the case of Soybean mosaic virus (SMV) NIa protease, the “cleavage of the substrate (transient coexpression in N. benthamiana)” value [3] is reported as “Transient coexpression of the modified GmPBS1 constructs along with the SMV NIa protease in N. benthamiana resulted in NIa-mediated cleavage of GmPBS1SCS”, the “cleavage of the substrate (immunoblot after transient co-expression in N. benthamiana)” value [1] is reported as “demonstrating cleavage of the decoy PBS1 proteins only by the matching proteases” and the “cleavage of the substrate (transient coexpression in N. benthamiana)” value [4] is reported as “Transient coexpression of the modified GmPBS1 constructs along with the SMV NIa protease in N. benthamiana resulted in NIa-mediated cleavage of GmPBS1SCS”. For the same molecule, the “cleavage of the substrate (transient coexpression in N. benthamiana)” value [5] was “Transient coexpression of the modified GmPBS1 constructs along with the SMV NIa protease in N. benthamiana resulted in NIa-mediated cleavage of GmPBS1SCS” and the “cleavage of the substrate (immunoblot after transient co-expression in N. benthamiana); not cleaved by the non-matching protease” value [2] was “demonstrating cleavage of the decoy PBS1 proteins only by the matching proteases”.

B1: HvPBS1-1:HA (enzyme, not shown: small tags and cut ends)
chain: MGCFPCFDSSSDGELLYPKQGGGGGGGGGNGTGGRTAAAASSSGVGAREERPMVPPRVEKLPAGAEKARAKGNAGMKELSDLRDANGNVLSAQTFTFRQLTAATRNFREECFIGEGGFGRVYKGRLDGGQVVAIKQLNRDGNQGNKEFLVEVLMLSLLHHQNLVNLVGYCADGEQRLLVYEYMPLGSLEDHLHDLPPDKEPLDWNTRMKIAAGAAKGLEYLHDKAQPPVIYRDFKSSNILLGDDFHPKLSDFGLAKLGPVGDKSHVSTRVMGTYGYCAPEYAMTGQLTVKSDVYSFGVVLLELITGRKAIDSTRPHGEQNLVSWARPLFNDRRKLPKMADPGLQGRYPMRGLYQALAVASMCIQSEAASRPLIADVVTALSYLASQIYDPNAIHASKKAGGDQRSRVSDSGRALLKNDEAGSSGHKSDRDDSPREPPPGILNDRERMVAEAKMWGANLREKTRAAANAQGSLDSPTETG
notes: also called HORVU2Hr1G070690.2; MLOC_13277
B1: no binding [6].

B2: HvPBS1-2:HA (enzyme, not shown: small tags and cut ends)
chain: MGFLSCLFRCPEEEEVVVKEHDDNEDSSGIDHGVASESSESVPLRAESTHIEGIQRNGTNNEATIFTLRELVDATKNFSQDSQLGRGGFGCVYKAYLNDGQVVAVKQLDLNGLQGNREFLVEVLMLNLLHHPNLVNLIGYCVDGDQRLLVYEYMPLGSLEDHLHDLPPNKEPLDWTTRMKIAAGAAAGLEYLHDKANPPVIYRDIKPSNILLAEGYHAKLSDFGLAKLGPVGDKTHVTTRVMGTYGYCAPEYAATGQLTNKSDIYSFGVVFLELITGRRALDSNRPREEQDLVSWARPLFKDQRKFPKMADPLLRGRFPKRGLYQALAIAAMCLQEKSRNRPLIREVAAALSYLSSQTYNGNDAAGRRCLDGPSTPKVSEEQVNQDDALPSQLGAQTSMHDRMNDFIPEGKEHCRSGSNRGVRGRVVPNGVDRDRALADANVWAEAWRRHEKASKVRVTDEILG
notes: also called HORVU3Hr1G035810.1; MLOC_12866
B2: no binding [6].

B3: AvrPphB(C98S):myc (protein)
chain: MKIGTQATSLAVLHNQESHAPQAPIAVRPEPAHAIPEIPLDLAIRPRTRGIHPFLAMTLGDKGCASSSGVSLEDDSHTQVSLSDFSVASRDVNHNNISAGLSTEWLVMSSDGDAESRMDHLDYNGEGQSRGSERHQVYNDALRAALSNDDEAPFFTASTAVIEDAGFSLRREPKTVHASGGSAQLGQTVAHDVAQSGRKHLLSLRFANVQGHAIACSCEGSQFKLFDPNLGEFQSSRSAAPQLIKGLIDHYNSLNYDVACVNEFRVS
For B3, the “cleavage of the substrate (Western blot after transient co-expression in N. benthamiana)” value [7] was “This did not produce any cleavage products”, the “cleavage of the substrate (Western blot after transient co-expression in N. benthamiana)” value [8] was “This did not produce any cleavage products” and the “cleavage of the substrate (immunoblot after transient co-expression in N. benthamiana)” value [9] was “Co-expression with AvrPphB:myc, but not the protease inactive mutant, resulted in cleavage of NbPBS1:HA”.
